The source of these data is publication PMC7306997.

The target of test [1] is Aβ42 oligomers formed during the in vitro aggregation of Aβ42 (M1–42) (UniProt P05067). The test is described as follows: TIRF single-molecule colocalisation imaging.
In another test the target is Aβ42 amyloid fibrils (UniProt P05067). Description: microfluidic diffusional sizing.

Consider AF647-labeled DesAb-O (antibody), for which the percentage of coincidence of ThT and AF647-DesAb-O signals in test [1] is under 45%. In the test with Aβ42 amyloid fibrils, this substance registered a Kd of 1000 nM and a stoichiometry N (DesAb-O per Aβ42 monomer) of 0.005.

As a reminder, the Kd is the equilibrium constant for the complex coming apart. Lower therefore signals tighter binding.
